From US20200024360A1 (Janssen / Centocor, published 2020)

T1: recombinant chimpanzee PSMA extracellular domain (ECD) protein (Pan troglodytes, UniProt Q04609 44-750 (human entry))
T1 construct: also called Chimp PSMA ECD; PSMG8
T1 chain: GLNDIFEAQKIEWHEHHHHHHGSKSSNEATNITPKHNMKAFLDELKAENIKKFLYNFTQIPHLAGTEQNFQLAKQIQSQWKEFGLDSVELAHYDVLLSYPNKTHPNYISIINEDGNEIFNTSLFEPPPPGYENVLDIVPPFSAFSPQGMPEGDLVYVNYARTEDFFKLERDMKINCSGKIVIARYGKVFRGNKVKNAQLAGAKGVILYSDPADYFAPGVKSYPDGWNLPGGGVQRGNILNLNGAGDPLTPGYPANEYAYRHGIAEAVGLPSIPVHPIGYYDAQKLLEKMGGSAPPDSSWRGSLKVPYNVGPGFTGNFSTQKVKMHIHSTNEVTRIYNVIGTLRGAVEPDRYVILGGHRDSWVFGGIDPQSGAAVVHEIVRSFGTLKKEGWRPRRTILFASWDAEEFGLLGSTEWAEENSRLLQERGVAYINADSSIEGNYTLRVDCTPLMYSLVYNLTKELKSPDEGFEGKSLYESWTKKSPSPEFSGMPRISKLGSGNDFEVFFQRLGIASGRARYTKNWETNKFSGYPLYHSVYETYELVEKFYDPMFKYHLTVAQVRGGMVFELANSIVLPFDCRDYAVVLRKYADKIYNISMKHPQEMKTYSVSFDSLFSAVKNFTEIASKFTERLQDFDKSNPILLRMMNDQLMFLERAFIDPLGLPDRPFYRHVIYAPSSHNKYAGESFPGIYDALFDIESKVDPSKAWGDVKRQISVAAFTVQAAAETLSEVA


Columns and labels:
[1] = target: T1, recombinant chimpanzee PSMA …; experiment: SPR ProteOn, bsAb captured by anti-Fc
Description: The interactions of PSMA×CD3 bispecific mAbs with target (recombinant Chimp, PSMA) were studied by Surface Plasmon Resonance (SPR) using a ProteOn XPR36 system (BioRad). […] Approximately 4400 RU (response units) of anti-Human IgG Fc antibodies were immobilized. The kinetic experiments were performed at 25° C. in running buffer (DPBS+0.03% P20+100 μg/ml BSA). […] The association phase was monitored for 3 minutes at 50 μL/min, then followed by 15 minutes of buffer flow (dissociation phase). The chip surface was regenerated with two 18 second pulses of 100 mM Phosphoric acid (H₃PO₄, Sigma, cat #7961) at 100 μL/min.
The collected data were processed using ProteOn Manager software. First, the data was corrected for background using inter-spots. Then, double reference subtraction of the data was performed by using the buffer injection for analyte injections. The kinetic analysis of the data was performed using a Langmuir 1:1 binding model.

[2] = target: T1, recombinant chimpanzee PSMA …; experiment: SPR Biacore 3000, bsAb captured by anti-Fc
Description: Binding to recombinant Chimp PSMA by Biacore. The Affinity measurements using Surface Plasmon Resonance (SPR) were performed using a Biacore 3000 optical biosensor (Biacore-GE Healthcare). A biosensor surface was prepared by coupling anti-Human IgG Fc (Jackson ImmunoResearch Laboratory, cat #109-005-098) to the carboxymethylated dextran surface of a CM-5 chip (Biacore, cat # BR-1000-12) using the manufacturer instructions for amine-coupling chemistry. Approximately 16,000 RU (response units) of anti-Human IgG Fc antibodies were immobilized in each of four flow cells. The kinetic experiments were performed at 25° C. in running buffer (DPBS+0.03% P20+[…]). Dilutions of antigen (recombinant Chimp PSMA, concentration either from 1.2-300 nM or 3.7-900 nM in a 3-fold serial dilution) were prepared in running buffer. About 100 RU of PSMA×CD3 bispecific mAbs were captured on flow cell 2 to 4 of the sensor chip. Flow cell 1 was used as reference surface. Capture of PSMA×CD3 bispecific mAb was followed by a 3 or 5-minute injection (association phase) of antigen (recombinant Chimp PSMA) at 50 μl/min, followed by 15 or 20 minutes of buffer flow (dissociation phase). The chip surface was regenerated by two 18-second injections of 100 mM Phosphoric acid (H₃PO₄, Sigma, cat #7961) at 50 μl/min.
The collected data were processed using BIAevaluation software (Biacore). First, double reference subtraction of the data was performed by subtracting the curves generated by buffer injection from the reference-subtracted curves for analyte injections. Then kinetic analysis of the data was performed using a Langmuir 1:1 binding model with global fit. The result for each PSMA×CD3 bispecific mAb was reported in the format of kₐ (On-rate), kd (Off-rate) and KD (Equilibrium dissociation constant).

Binder | Kd [1] | koff [1] | kon [1] | Kd [2] | koff [2] | kon [2]
PS3B27 (bispecific antibody, human IgG4 S228P, kappa, lambda, F234A L235A, IgG4 PAA; PSMA arm chains first, then CD3 arm (F405L, R409K); also called PSMB127 x CD3B219; PS2B27) heavy 1: not shown light 1: not shown heavy 2: EVQLVESGGGLVQPGGSLRLSCAASGFTFNTYAMNWVRQAPGKGLEWVARIRSKYNNYATYYAASVKGRFTISRDDSKNSLYLQMNSLKTEDTAVYYCARHGNFGNSYVSWFAYWGQGTLVTVSSASTKGPSVFPLAPCSRSTSESTAALGCLVKDYFPEPVTVSWNSGALTSGVHTFPAVLQSSGLYSLSSVVTVPSSSLGTKTYTCNVDHKPSNTKVDKRVESKYGPPCPPCPAPEAAGGPSVFLFPPKPKDTLMISRTPEVTCVVVDVSQEDPEVQFNWYVDGVEVHNAKTKPREEQFNSTYRVVSVLTVLHQDWLNGKEYKCKVSNKGLPSSIEKTISKAKGQPREPQVYTLPPSQEEMTKNQVSLTCLVKGFYPSDIAVEWESNGQPENNYKTTPPVLDSDGSFLLYSKLTVDKSRWQEGNVFSCSVMHEALHNHYTQKSLSLSLGK light 2: QTVVTQEPSLTVSPGGTVTLTCRSSTGAVTTSNYANWVQQKPGQAPRGLIGGTNKRAPGTPARFSGSLLGGKAALTLSGVQPEDEAEYYCALWYSNLWVFGGGTKLTVLGQPKAAPSVTLFPPSSEELQANKATLVCLISDFYPGAVTVAWKADSSPVKAGVETTTPSKQSNNKYAASSYLSLTPEQWKSHRSYSCQVTHEGSTVEKTVAPTECS | 10.4 nM | 0.00176 s⁻¹ | 170000 M⁻¹ s⁻¹ | 22.4 nM | 0.002 s⁻¹ | 89000 M⁻¹ s⁻¹
PS3B30 (bispecific antibody, human IgG4 S228P, kappa, lambda, F234A L235A, IgG4 PAA; PSMA arm chains first, then CD3 arm (F405L, R409K); also called PSMB130 x CD3B219) heavy 1: not shown light 1: not shown heavy 2: EVQLVESGGGLVQPGGSLRLSCAASGFTFNTYAMNWVRQAPGKGLEWVARIRSKYNNYATYYAASVKGRFTISRDDSKNSLYLQMNSLKTEDTAVYYCARHGNFGNSYVSWFAYWGQGTLVTVSSASTKGPSVFPLAPCSRSTSESTAALGCLVKDYFPEPVTVSWNSGALTSGVHTFPAVLQSSGLYSLSSVVTVPSSSLGTKTYTCNVDHKPSNTKVDKRVESKYGPPCPPCPAPEAAGGPSVFLFPPKPKDTLMISRTPEVTCVVVDVSQEDPEVQFNWYVDGVEVHNAKTKPREEQFNSTYRVVSVLTVLHQDWLNGKEYKCKVSNKGLPSSIEKTISKAKGQPREPQVYTLPPSQEEMTKNQVSLTCLVKGFYPSDIAVEWESNGQPENNYKTTPPVLDSDGSFLLYSKLTVDKSRWQEGNVFSCSVMHEALHNHYTQKSLSLSLGK light 2: QTVVTQEPSLTVSPGGTVTLTCRSSTGAVTTSNYANWVQQKPGQAPRGLIGGTNKRAPGTPARFSGSLLGGKAALTLSGVQPEDEAEYYCALWYSNLWVFGGGTKLTVLGQPKAAPSVTLFPPSSEELQANKATLVCLISDFYPGAVTVAWKADSSPVKAGVETTTPSKQSNNKYAASSYLSLTPEQWKSHRSYSCQVTHEGSTVEKTVAPTECS | 22.4 nM | 0.00165 s⁻¹ | 73400 M⁻¹ s⁻¹ | 52.3 nM | 0.00182 s⁻¹ | 34800 M⁻¹ s⁻¹
PS3B23 (bispecific antibody, human IgG4 S228P, kappa, lambda, F234A L235A, IgG4 PAA; PSMA arm chains first, then CD3 arm (F405L, R409K); also called PSMB123 x CD3B219) heavy 1: not shown light 1: not shown heavy 2: EVQLVESGGGLVQPGGSLRLSCAASGFTFNTYAMNWVRQAPGKGLEWVARIRSKYNNYATYYAASVKGRFTISRDDSKNSLYLQMNSLKTEDTAVYYCARHGNFGNSYVSWFAYWGQGTLVTVSSASTKGPSVFPLAPCSRSTSESTAALGCLVKDYFPEPVTVSWNSGALTSGVHTFPAVLQSSGLYSLSSVVTVPSSSLGTKTYTCNVDHKPSNTKVDKRVESKYGPPCPPCPAPEAAGGPSVFLFPPKPKDTLMISRTPEVTCVVVDVSQEDPEVQFNWYVDGVEVHNAKTKPREEQFNSTYRVVSVLTVLHQDWLNGKEYKCKVSNKGLPSSIEKTISKAKGQPREPQVYTLPPSQEEMTKNQVSLTCLVKGFYPSDIAVEWESNGQPENNYKTTPPVLDSDGSFLLYSKLTVDKSRWQEGNVFSCSVMHEALHNHYTQKSLSLSLGK light 2: QTVVTQEPSLTVSPGGTVTLTCRSSTGAVTTSNYANWVQQKPGQAPRGLIGGTNKRAPGTPARFSGSLLGGKAALTLSGVQPEDEAEYYCALWYSNLWVFGGGTKLTVLGQPKAAPSVTLFPPSSEELQANKATLVCLISDFYPGAVTVAWKADSSPVKAGVETTTPSKQSNNKYAASSYLSLTPEQWKSHRSYSCQVTHEGSTVEKTVAPTECS | 1.8 nM | 0.00176 s⁻¹ | 989000 M⁻¹ s⁻¹ | 9.1 nM | 0.00122 s⁻¹ | 134000 M⁻¹ s⁻¹
PS3B22 (bispecific antibody, human IgG4 S228P, kappa, lambda, F234A L235A, IgG4 PAA; PSMA arm chains first, then CD3 arm (F405L, R409K); also called PSMB122 x CD3B219; PSB22) heavy 1: not shown light 1: DIQMTQSPSSLSASVGDRVTITCRASQSIDRWLNWYQQKPGKAPKLLIYAASSLQSGVPSRFSGSGSGTDFTLTISSLQPEDFATYYCQQSPRYPLTFGQGTKVEIKRTVAAPSVFIFPPSDEQLKSGTASVVCLLNNFYPREAKVQWKVDNALQSGNSQESVTEQDSKDSTYSLSSTLTLSKADYEKHKVYACEVTHQGLSSPVTKSFNRGEC heavy 2: EVQLVESGGGLVQPGGSLRLSCAASGFTFNTYAMNWVRQAPGKGLEWVARIRSKYNNYATYYAASVKGRFTISRDDSKNSLYLQMNSLKTEDTAVYYCARHGNFGNSYVSWFAYWGQGTLVTVSSASTKGPSVFPLAPCSRSTSESTAALGCLVKDYFPEPVTVSWNSGALTSGVHTFPAVLQSSGLYSLSSVVTVPSSSLGTKTYTCNVDHKPSNTKVDKRVESKYGPPCPPCPAPEAAGGPSVFLFPPKPKDTLMISRTPEVTCVVVDVSQEDPEVQFNWYVDGVEVHNAKTKPREEQFNSTYRVVSVLTVLHQDWLNGKEYKCKVSNKGLPSSIEKTISKAKGQPREPQVYTLPPSQEEMTKNQVSLTCLVKGFYPSDIAVEWESNGQPENNYKTTPPVLDSDGSFLLYSKLTVDKSRWQEGNVFSCSVMHEALHNHYTQKSLSLSLGK light 2: QTVVTQEPSLTVSPGGTVTLTCRSSTGAVTTSNYANWVQQKPGQAPRGLIGGTNKRAPGTPARFSGSLLGGKAALTLSGVQPEDEAEYYCALWYSNLWVFGGGTKLTVLGQPKAAPSVTLFPPSSEELQANKATLVCLISDFYPGAVTVAWKADSSPVKAGVETTTPSKQSNNKYAASSYLSLTPEQWKSHRSYSCQVTHEGSTVEKTVAPTECS | 19 nM | 0.00124 s⁻¹ | 65100 M⁻¹ s⁻¹ | 60.4 nM | 0.001 s⁻¹ | 16600 M⁻¹ s⁻¹
PS3B25 (bispecific antibody, human IgG4 S228P, kappa, lambda, F234A L235A, IgG4 PAA; also called PSMB87 x CD3B219) heavy 1: not shown light 1: not shown heavy 2: EVQLVESGGGLVQPGGSLRLSCAASGFTFNTYAMNWVRQAPGKGLEWVARIRSKYNNYATYYAASVKGRFTISRDDSKNSLYLQMNSLKTEDTAVYYCARHGNFGNSYVSWFAYWGQGTLVTVSSASTKGPSVFPLAPCSRSTSESTAALGCLVKDYFPEPVTVSWNSGALTSGVHTFPAVLQSSGLYSLSSVVTVPSSSLGTKTYTCNVDHKPSNTKVDKRVESKYGPPCPPCPAPEAAGGPSVFLFPPKPKDTLMISRTPEVTCVVVDVSQEDPEVQFNWYVDGVEVHNAKTKPREEQFNSTYRVVSVLTVLHQDWLNGKEYKCKVSNKGLPSSIEKTISKAKGQPREPQVYTLPPSQEEMTKNQVSLTCLVKGFYPSDIAVEWESNGQPENNYKTTPPVLDSDGSFLLYSKLTVDKSRWQEGNVFSCSVMHEALHNHYTQKSLSLSLGK light 2: QTVVTQEPSLTVSPGGTVTLTCRSSTGAVTTSNYANWVQQKPGQAPRGLIGGTNKRAPGTPARFSGSLLGGKAALTLSGVQPEDEAEYYCALWYSNLWVFGGGTKLTVLGQPKAAPSVTLFPPSSEELQANKATLVCLISDFYPGAVTVAWKADSSPVKAGVETTTPSKQSNNKYAASSYLSLTPEQWKSHRSYSCQVTHEGSTVEKTVAPTECS | 5.5 nM | 0.00106 s⁻¹ | 195000 M⁻¹ s⁻¹ | 16.4 nM | 0.00108 s⁻¹ | 65900 M⁻¹ s⁻¹
